B1: Isoform 2 of Bardet-Biedl syndrome 7 protein (Homo sapiens), Q8IWZ6-2 (parent)
chain: MDLILNRMDYLQVGVTSQKTMKLIPASRHRATQKVVIGDHDGVVMCFGMKKGEAAAVFKTLPGPKIARLELGGVINTPQEKIFIAAASEIRGFTKRGKQFLSFETNLTESIKAMHISGSDLFLSASYIYNHYCDCKDQHYYLSGDKINDVICLPVERLSRITPVLACQDRVLRVLQGSDVMYAVEVPGPPTVLALHNGNGGDSGEDLLFGTSDGKLALIQITTSKPVRKWEIQNEKKRGGILCIDSFDIVGDGVKDLLVGRDDGMVEVYSFDNANEPVLRFDQMLSESVTSIQGGCVGKDSYDEIVVSTYSGWVTGLTTEPIHKESGPGEELKINQEMQNKISSLRNELEHLQYKVLQERENYQQSSQSSKAKSAVPSFGINDKFTLNKDDASYSLILEVQTAIDNVLIQSDVPIDLLDVDKNSAVVSFSSCDSESNDNFLLATYRCQADTTRLELKIRSIEGQYGTLQAYVTPRIQPKTCQVRQYHIKPLSLHQRTHFIDHDRPMNTLTLTGQFSFAEVHSWVVFCLPEVPEKPPAGECVTFYFQNTFLDTQLESTYRKGEGVFKSDNISTISILKDVLSKEATKRKINLNISYEINEVSVKHTLKLIHPKLEYQLLLAKKVQLIDALKELQIHEGNTNFLIPEYHCILEEADHLQEEYKKQPAHLERLYG
partner: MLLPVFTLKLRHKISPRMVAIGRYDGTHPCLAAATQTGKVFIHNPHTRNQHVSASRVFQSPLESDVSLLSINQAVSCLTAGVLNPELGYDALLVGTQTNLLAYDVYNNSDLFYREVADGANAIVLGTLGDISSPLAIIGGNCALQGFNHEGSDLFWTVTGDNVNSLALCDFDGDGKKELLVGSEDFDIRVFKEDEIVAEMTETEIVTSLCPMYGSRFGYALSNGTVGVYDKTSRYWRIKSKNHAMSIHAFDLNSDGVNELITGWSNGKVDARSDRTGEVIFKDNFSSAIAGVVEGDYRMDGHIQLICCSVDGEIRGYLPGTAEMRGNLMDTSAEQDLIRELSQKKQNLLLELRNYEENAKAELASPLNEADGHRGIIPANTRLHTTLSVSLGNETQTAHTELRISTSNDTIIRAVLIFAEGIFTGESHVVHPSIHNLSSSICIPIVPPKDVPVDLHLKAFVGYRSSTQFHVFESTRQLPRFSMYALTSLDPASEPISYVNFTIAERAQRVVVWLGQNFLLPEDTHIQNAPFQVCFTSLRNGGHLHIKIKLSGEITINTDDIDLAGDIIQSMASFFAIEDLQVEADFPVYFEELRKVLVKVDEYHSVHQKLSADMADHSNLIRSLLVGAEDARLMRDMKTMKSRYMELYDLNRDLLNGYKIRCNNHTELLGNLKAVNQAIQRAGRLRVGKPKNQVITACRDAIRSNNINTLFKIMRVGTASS

The record followed here is IntAct's records for PubMed 29039417.

In the test the parent is B1. The settings on record: with bbs2_human BBS2, Q9BXC9.
On to T386K, for which the “effect of a mutation on the interaction” value is reported as “with no effect”.
The entry for T386E is “with no effect”; for T386A it is “with no effect”; for L387K it is “with no effect”.
As to L387A, the “effect of a mutation on the interaction” value is recorded as “with no effect”.
In the case of L387E it was “with no effect”; in that of L396K, “with no effect”; in that of L396E, “with no effect”.
Regarding L396P, the “effect of a mutation on the interaction” value is on record as “disrupting interaction strength”.
The entry for L396A is “with no effect”; for L417E it is “with no effect”; for L417A it is “with no effect”.
In the case of L417K it was “with no effect”.
In the case of Y394K it was “with no effect”; in that of Y394A, “with no effect”; in that of Y394E, “with no effect”.
Turning to I404A, the “effect of a mutation on the interaction” value is reported as “with no effect”.
The entry for I404E is “with no effect”; for I404K it is “with no effect”.
The entry for N388A is “with no effect”.
In the case of N388E it was “with no effect”; in that of N388K, “with no effect”.
Turning to S367K, the “effect of a mutation on the interaction” value is “with no effect”.
Turning to S367A, the “effect of a mutation on the interaction” value was “with no effect”.
In the case of S367E it was “with no effect”; in that of N406E, “with no effect”; in that of N406K, “with no effect”.
The entry for N406A is “with no effect”; for Q410A it is “with no effect”; for Q410E it is “with no effect”.
As for Q410K, the “effect of a mutation on the interaction” value is “with no effect”.
Regarding D405E, the “effect of a mutation on the interaction” value is “with no effect”.
As to D405A, the “effect of a mutation on the interaction” value is “with no effect”.
In the case of D405K it was “with no effect”; in that of S369E, “with no effect”; in that of S369A, “with no effect”.
The entry for S369K is “with no effect”.
The entry for P414E is “with no effect”; for P414K it is “with no effect”.
Consider P414A, for which the “effect of a mutation on the interaction” value is on record as “with no effect”.
The entry for G380E is “with no effect”; for G380A it is “with no effect”; for G380K it is “with no effect”.
The entry for F379A is “with no effect”; for F379E it is “with no effect”; for F379K it is “with no effect”.
L398K: the “effect of a mutation on the interaction” value is given as “with no effect”.
The entry for L398E is “with no effect”.
For L398A, the “effect of a mutation on the interaction” value is reported as “with no effect”.
The entry for K422E is “with no effect”; for K422A it is “with no effect”; for K389A it is “with no effect”.
In the case of K389E it was “with no effect”; in that of S366E, “with no effect”; in that of S366K, “with no effect”.
In the case of S366A it was “with no effect”.
Consider K384E, for which the “effect of a mutation on the interaction” value is given as “with no effect”.
In the case of K384A it was “with no effect”.
The entry for A375K is “with no effect”.
Turning to A375E, the “effect of a mutation on the interaction” value is “with no effect”.
Regarding D416K, the “effect of a mutation on the interaction” value is “with no effect”.
The entry for D416E is “with no effect”; for D416A it is “with no effect”; for S370E it is “with no effect”.
The entry for S370K is “with no effect”; for S370A it is “with no effect”.
In the case of A372E it was “with no effect”; in that of A372K, “with no effect”; in that of Y363A, “with no effect”.
On to Y363K, for which the “effect of a mutation on the interaction” value is recorded as “with no effect”.
As to Y363E, the “effect of a mutation on the interaction” value was “with no effect”.
The entry for D419E is “with no effect”; for D419K it is “with no effect”; for D419A it is “with no effect”.
In the case of V420A it was “with no effect”; in that of V420K, “with no effect”; in that of V420E, “with no effect”.
The entry for S411A is “with no effect”; for S411E it is “with no effect”; for S411K it is “with no effect”.
For D391A, the “effect of a mutation on the interaction” value was “with no effect”.
In the case of D391K it was “with no effect”; in that of D391E, “with no effect”.
The entry for N423A is “with no effect”; for N423E it is “with no effect”; for N423K it is “with no effect”.
In the case of V426A it was “with no effect”; in that of V426K, “with no effect”; in that of V426E, “with no effect”.
As for T402E, the “effect of a mutation on the interaction” value is reported as “with no effect”.
As to T402K, the “effect of a mutation on the interaction” value is “with no effect”.
The entry for T402A is “with no effect”.
The entry for S393A is “with no effect”.
